This passage reports Kd results from article PMC12277127.

Conditions in all cases: protein: recombinant; tags: none left (N-terminal His removed by TEV); chain copies: 3; single strand
Data set [1] concerns the target T1, SPRTN core (E112Q) (human, UniProt Q9H040 26-240, E112Q).
T1 sequence: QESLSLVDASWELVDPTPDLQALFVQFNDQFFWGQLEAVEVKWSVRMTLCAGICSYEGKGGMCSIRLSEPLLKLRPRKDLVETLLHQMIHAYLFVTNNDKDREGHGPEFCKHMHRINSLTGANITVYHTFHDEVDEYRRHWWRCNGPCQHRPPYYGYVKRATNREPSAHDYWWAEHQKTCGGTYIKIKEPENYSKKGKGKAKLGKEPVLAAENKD
Description: ITC; with equimolar monoUb; N=0.36 ± 0.02; ITC: 50 mM HEPES pH 7.4, 50 mM NaCl, 0.5 mM TCEP-HCl, 25 °C, one-site model. In general terms: In ITC the heat of successive injections is recorded.

Data set [2] addresses T1, SPRTN core (E112Q). Description: ITC; no ubiquitin; N=0.36 ± 0.05; ITC: 50 mM HEPES pH 7.4, 50 mM NaCl, 0.5 mM TCEP-HCl, 25 °C, one-site model.
Data set [3] deals with T1, SPRTN core (E112Q). Description: ITC; with equimolar M1-Ub4 (linear tetra-ubiquitin; ternary complex); N=0.29 ± 0.01; ITC: 50 mM HEPES pH 7.4, 50 mM NaCl, 0.5 mM TCEP-HCl, 25 °C, one-site model.

B1: ssDNA (20 nt), Turner-20bp-F (ssDNA)
DNA: ACGCCTGAAGAGTCTGGTGA
As to B1, the equilibrium dissociation constant (Kd) in the data set with SPRTN core (E112Q) [1] turned out to be 5.15 ± 1.36 µM; with SPRTN core (E112Q) [2], 4.33 ± 0.98 µM; with SPRTN core (E112Q) [3] it was 0.44 ± 0.03 µM.

Broadly, the Kd is the concentration at which binding is half-saturated.
